How the values were obtained:
[1] = molecular target: platelet glycoprotein GpIb alpha (CD42b antigen), on live human platelets (human) (UniProt P07359); experiment: platelet adhesion to vWF-A1 coated wells, AK2 at 2 ug/ml, Acumen cytometry
[2] = molecular target: platelet glycoprotein GpIb alpha (CD42b antigen), on live human platelets (human) (UniProt P07359); experiment: platelet adhesion to vWF-A1 coated wells vs BSA, automated run of 30 plates, Acumen cytometry
[3] = molecular target: platelet glycoprotein GpIb alpha (CD42b antigen), on live human platelets (human) (UniProt P07359); experiment: platelet adhesion to coated wells, optimized wash program, Acumen cytometry; reference BSA-coated wells
[4] = molecular target: platelet glycoprotein GpIb alpha (CD42b antigen), on live human platelets (human) (UniProt P07359); experiment: platelet adhesion to vWF-A1 coated wells vs BSA-coated wells, optimized washer settings, Acumen cytometry
[5] = molecular target: collagen receptor on live human platelets (human); experiment: platelet adhesion to rat tail collagen 1 coated wells vs BSA, 6 plates under automated conditions, Acumen cytometry

platelet glycoprotein GpIb alpha (CD42b antigen), on live human platelets (human), sequence (P07359 17-652): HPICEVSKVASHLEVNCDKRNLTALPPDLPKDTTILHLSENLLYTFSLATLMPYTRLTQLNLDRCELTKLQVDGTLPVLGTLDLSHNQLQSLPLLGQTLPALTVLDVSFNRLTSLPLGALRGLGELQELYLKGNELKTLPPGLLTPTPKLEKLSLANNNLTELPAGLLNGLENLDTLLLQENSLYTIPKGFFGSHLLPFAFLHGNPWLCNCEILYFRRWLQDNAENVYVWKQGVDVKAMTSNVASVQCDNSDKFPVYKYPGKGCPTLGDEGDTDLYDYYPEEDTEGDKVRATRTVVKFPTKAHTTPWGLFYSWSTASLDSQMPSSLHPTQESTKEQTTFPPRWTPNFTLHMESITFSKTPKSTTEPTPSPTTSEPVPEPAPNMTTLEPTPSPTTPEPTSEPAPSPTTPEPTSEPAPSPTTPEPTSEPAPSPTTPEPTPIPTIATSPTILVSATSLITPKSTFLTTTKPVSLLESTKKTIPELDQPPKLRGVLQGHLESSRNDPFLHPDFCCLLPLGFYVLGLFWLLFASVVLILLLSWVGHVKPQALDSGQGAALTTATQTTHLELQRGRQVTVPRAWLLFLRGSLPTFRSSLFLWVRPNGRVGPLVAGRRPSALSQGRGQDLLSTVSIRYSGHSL
vWF-A1 (von Willebrand factor A1 domain, Aa 475-706), His-tagged recombinant protein (ligand), sequence (chain): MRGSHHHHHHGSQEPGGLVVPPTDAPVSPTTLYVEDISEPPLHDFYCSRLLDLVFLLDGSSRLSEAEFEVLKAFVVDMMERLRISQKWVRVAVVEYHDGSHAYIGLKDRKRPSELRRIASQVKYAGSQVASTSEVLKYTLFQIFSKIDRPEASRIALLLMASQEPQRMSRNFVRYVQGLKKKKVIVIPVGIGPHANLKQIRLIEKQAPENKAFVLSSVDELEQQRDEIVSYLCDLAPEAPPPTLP

Work on “Mouse anti-human CD42b monoclonal antibody, clone AK2 (Chemicon international, catalog No. CBL166)” yielded a % inhibition of platelet adhesion [1] of 90%.

“vWF-A1 (von Willebrand factor A1 domain, Aa 475-706), His-tagged recombinant protein (ligand)” gave a S/B [2] of 20 fold, a S/B (number platelets attached to vWF-A1 vs BSA) [3] of 70 fold and a S/B [4] of 78 fold.

“Collagen I (rat tail, SIGMA C8897) (from UniProt P02454 152-1207; P02466 86-1125) (ligand)” showed a S/B [5] of 20 fold.

— patent publication US20130189714A1, “METHOD FOR THE DETECTION AND/OR QUANTIFICATION OF THE INTERACTION OF PLATELETS WITH INTERACTION PARTNERS” (SANOFI, priority 2010, published 2013)
